This is an account of results in article PMC9741242, “Insights into the Structure of the Highly Glycosylated Ffase from Rhodotorula dairenensis Enhance Its Biotechnological Potential” (International Journal of Molecular Sciences, 2022).

B1: RdINV (Rhodotorula dairenensis; A213W/Q216L) (protein)
chain: APAASSLAGPVTTGVFSAVSAIPSFATNLSGQVASATSTVLSGSTASGSSATAAPSASASGASSMQSMASSLSGSAFSPSSMMPIASGNMTMPNMTSSASASSAASTATGVAGGAGSNSSSSCAPTSLPASATELPTTVPTGTVITGDYTGSYRPQVHYSPPKGFMNDPNGCHRDRNGTYHLYYQYNPLEYVWGNLHWGHATSDDLYHWTNQPIAIFPPNSTSQVFSGSAVLDPNNTSGFFPNTTDGVVAVYTLNTPTLQVQEVAYSTDGGYNFTPYENNPVLSVGSNQFRDPKVFWYEDHWVMAVAAANDFTIEIYTSPNLTSWTFASNFTHHGLLGLAYECPNLVQVPFQDDPSKSAWLMYISINPGAPLGGSVGQYFPGDFNGTHFVAYDSAARIADFAKDNYASQWFADTENGESISIAWASNWQYTQQVPTSAQAFRSAMSLPRRNYLTNITRLGWDLVSLPYDLSPVVGPSLLSSSEANSTADVDFTNVTSNAVWFSLNVTLPDAAIQNASLISADASINITFLPSTKCSSSSGSGSDSPAATLTYFYAGLTNGALALTRPAASSSWGAENPFFTDKFSYTLVDPLTSLVGVFDRSMLEVFVNEGAHSATMLVFPDSPVGSMKVATGGLPEGTQVNLQVNGLESTWQSS
notes: full-length RdINV, 675 residues, S. cerevisiae MFalpha secretion signal in pIB4, secreted by Komagataella phaffii; highly N- and O-glycosylated, ~170 kDa; homodimer
B2: RdINV (Rhodotorula dairenensis; A213W) (protein)
chain: B1 chain with L196Q
notes: as for B1
B3: RdINV (Rhodotorula dairenensis; A360Q) (protein)
chain: B1 chain with W193A, L196Q, A340Q
notes: as for B1
B4: RdINV (Rhodotorula dairenensis; N387T) (protein)
chain: B1 chain with W193A, L196Q, N367T
notes: as for B1
B5: RdINV (Rhodotorula dairenensis; A360Q/N387T) (protein)
chain: B1 chain with W193A, L196Q, A340Q, N367T
notes: as for B1
B6: RdINV (Rhodotorula dairenensis) (protein)
chain: B1 chain with W193A, L196Q
notes: as for B1
B7: RdINV (Rhodotorula dairenensis; Q216L) (protein)
chain: B1 chain with W193A
notes: as for B1
B8: RdINV (Rhodotorula dairenensis; Q216T) (protein)
chain: B1 chain with W193A, L196T
notes: as for B1
B9: RdINVΔ21–139 (Rhodotorula dairenensis) (protein)
chain: SSSCAPTSLPASATELPTTVPTGTVITGDYTGSYRPQVHYSPPKGFMNDPNGCHRDRNGTYHLYYQYNPLEYVAGNQHWGHATSDDLYHWTNQPIAIFPPNSTSQVFSGSAVLDPNNTSGFFPNTTDGVVAVYTLNTPTLQVQEVAYSTDGGYNFTPYENNPVLSVGSNQFRDPKVFWYEDHWVMAVAAANDFTIEIYTSPNLTSWTFASNFTHHGLLGLAYECPNLVQVPFQDDPSKSAWLMYISINPGAPLGGSVGQYFPGDFNGTHFVAYDSAARIADFAKDNYASQWFADTENGESISIAWASNWQYTQQVPTSAQAFRSAMSLPRRNYLTNITRLGWDLVSLPYDLSPVVGPSLLSSSEANSTADVDFTNVTSNAVWFSLNVTLPDAAIQNASLISADASINITFLPSTKCSSSSGSGSDSPAATLTYFYAGLTNGALALTRPAASSSWGAENPFFTDKFSYTLVDPLTSLVGVFDRSMLEVFVNEGAHSATMLVFPDSPVGSMKVATGGLPEGTQVNLQVNGLESTWQSS
notes: truncated: residues 21-139 deleted after the signal peptide (residues 140-675 remain); secreted by Komagataella phaffii, glycosylated, ~100 kDa; homodimer; deglycosylated for crystals

A word on the Km: it is the substrate concentration at which the rate is half of its maximum. For orientation: kcat means the number of substrate molecules converted per active site and unit of time at saturation. A word on the kcat/Km: it is the second-order rate constant that governs catalysis at low substrate concentration.

Substitutions are numbered along the chain they refer to. In names and notes the source's numbering stands.

Substrate in the first data set: OC[C@H]1O[C@@](CO)(O[C@H]2O[C@H](CO)[C@@H](O)[C@H](O)[C@H]2O)[C@@H](O)[C@@H]1O
Nature of the data set: DNS reducing sugar assay, Michaelis-Menten fit. In kind it is biochemical, Rhodotorula dairenensis. The note with it: 50 mM sodium phosphate pH 5.5, 60 °C, sucrose 1-200 mM. An excerpt:
DNS reducing sugar assay, Michaelis-Menten fit on RdINV
For the protein B1, the Km was 88 ± 9 mM, the catalytic constant (kcat) was determined as 10500 ± 329 s⁻¹ and the kcat/Km amounted to 120000 ± 4000 M⁻¹ s⁻¹.

Turning to B2, the Km came out at 47 ± 3 mM, the kcat amounted to 2720 ± 45 s⁻¹ and the kcat/Km was 58000 ± 3000 M⁻¹ s⁻¹.

For B3, the Km is listed as 15 ± 0.2 mM, the kcat amounted to 3814 ± 16 s⁻¹ and the kcat/Km was 251000 ± 21000 M⁻¹ s⁻¹.

For B4, the Km is listed as 17 ± 0.8 mM, the kcat was determined as 583 ± 5 s⁻¹ and the specificity constant (kcat/Km) was found to be 35000 ± 1000 M⁻¹ s⁻¹.

B5: the Km worked out at 14 ± 0.6 mM, the kcat amounted to 486 ± 4 s⁻¹ and the kcat/Km worked out at 34000 ± 1000 M⁻¹ s⁻¹.

Regarding B6, the Michaelis constant (Km) amounted to 5 ± 0.1 mM, the kcat stood at 4751 ± 25 s⁻¹ and the kcat/Km was 1.011e+06 ± 10000 M⁻¹ s⁻¹.

Regarding B7, the Km amounted to 24 ± 1 mM, the kcat worked out at 2324 ± 13 s⁻¹ and the kcat/Km turned out to be 98000 ± 3000 M⁻¹ s⁻¹.

Take B8: the Km is 13 ± 1 mM, the kcat was 11500 ± 182 s⁻¹ and the kcat/Km is 864000 ± 39000 M⁻¹ s⁻¹.

Substrate in the next data set: OC[C@H]1O[C@@](CO)(O[C@H]2O[C@H](CO)[C@@H](O)[C@H](O)[C@H]2O)[C@@H](O)[C@@H]1O
Kind of data set: DNS reducing sugar assay, Michaelis-Menten fit. Type of data set: biochemical, Rhodotorula dairenensis. The note with it: 50 mM sodium phosphate pH 5.5, 60 °C, sucrose 1-200 mM. This is another data set of the same source. An excerpt: DNS reducing sugar assay, Michaelis-Menten fit on RdINVΔ21–139
Take B9: the Km was found to be 9 ± 1 mM, the kcat came out at 16400 ± 216 s⁻¹ and the kcat/Km turned out to be 1.781e+06 ± 16000 M⁻¹ s⁻¹.
